# Data as given in patent US20230303994.
# Where a chain is given by its changes, count along the chain named.
# B1: trypsin variant SEQ ID NO: 53 (protein)
# chain: IVGGYTCAANSIPYQVSLNSGSHRCGGSLINSQWVVSAAHCYKPRIQVRLGEHNIDVLEGNEQFINAAKIITHPNFNGNTLDNDIMLIKLSSPATLNSRVATVSLPRSCAAAGTECLISGWGNTKSSGSSYPSLLQCLKAPVLSDSSCKSSYPGQITGNMICVGFLEGGKDACQGDSGGPVVCNGQLQGIVSSGYGCAQKNKPGVYTKVCNYVNWIQQTIAAN
# B2: trypsin variant SEQ ID NO: 56 (protein)
# chain: B1 chain with P44S, D56N
# B3: trypsin variant SEQ ID NO: 57 (protein)
# chain: B1 chain with P44S, D56H
# B4: trypsin variant SEQ ID NO: 9 (protein)
# chain: B1 chain with P44S, R99Y
# B5: trypsin variant SEQ ID NO: 73 (protein)
# chain: B1 chain with P44S, G78A
# B6: trypsin variant SEQ ID NO: 74 (protein)
# chain: B1 chain with P44S, G78P
# B7: trypsin variant SEQ ID NO: 77 (protein)
# chain: B1 chain with D56H, R99H, R107T, K125C, Y131M
# B8: trypsin variant SEQ ID NO: 78 (protein)
# chain: B1 chain with P44S, D56H, G78P, R99H, R107T, K125C
# B9: trypsin variant SEQ ID NO: 79 (protein)
# chain: B1 chain with D56H, G78P, R99H, K125A, Y131M
# B10: trypsin variant SEQ ID NO: 80 (protein)
# chain: B1 chain with P44S, D56H, G78P, R99H, R107T, K125S, Y131M
# B11: trypsin variant SEQ ID NO: 81 (protein)
# chain: B1 chain with P44S, D56H, G78P, R99H, R107T, K125A, Y131M
# B12: trypsin variant SEQ ID NO: 82 (protein)
# chain: B1 chain with D56H, G78P, R99H, K125C, Y131M
# B13: trypsin variant SEQ ID NO: 10 (protein)
# chain: B1 chain with P44S, R99T
# B14: trypsin variant SEQ ID NO: 83 (protein)
# chain: B1 chain with D56H, G78P, R99N, R107T, K125S, Y131M
# B15: trypsin variant SEQ ID NO: 84 (protein)
# chain: B1 chain with D56H, G78P, R99N, R107T, K125S, Y131M, A172S
# B16: trypsin variant SEQ ID NO: 85 (protein)
# chain: B1 chain with D56H, G78P, R99H, R107T, K125C, Y131M
# B17: trypsin variant SEQ ID NO: 86 (protein)
# chain: B1 chain with G78P, R99A, R107T, K125S, Y131M
# B18: trypsin variant SEQ ID NO: 87 (protein)
# chain: B1 chain with D56H, G78P, R99H, R107T, K125S, Y131M
# B19: trypsin variant SEQ ID NO: 88 (protein)
# chain: B1 chain with D56H, G78P, R99H, R107T, K125S, Y131M, A172S
# B20: trypsin variant SEQ ID NO: 89 (protein)
# chain: B1 chain with D56H, G78P, R99H, R107T, K125A, Y131M
# B21: trypsin variant SEQ ID NO: 90 (protein)
# chain: B1 chain with D56H, G78P, R99H, R107T, K125A, Y131M, A172S
# B22: trypsin variant SEQ ID NO: 91 (protein)
# chain: B1 chain with D56H, G78P, R99A, R107T, K125S, Y131M
# B23: trypsin variant SEQ ID NO: 92 (protein)
# chain: B1 chain with D56H, G78P, R99A, R107T, K125C, Y131M
# B24: trypsin variant SEQ ID NO: 11 (protein)
# chain: B1 chain with P44S, R99N
# B25: trypsin variant SEQ ID NO: 93 (protein)
# chain: B1 chain with P44S, G78P, R99N, R107T, K125C, Y131M, K170A
# B26: trypsin variant SEQ ID NO: 94 (protein)
# chain: B1 chain with D56H, R99N, K125C, Y131M, K170A
# B27: trypsin variant SEQ ID NO: 43 (protein)
# chain: B1 chain with P44S, A172T
# B28: trypsin variant SEQ ID NO: 44 (protein)
# chain: B1 chain with P44S, A172S
# B29: trypsin variant SEQ ID NO: 45 (protein)
# chain: B1 chain with P44S, A172C
# B30: trypsin variant SEQ ID NO: 46 (protein)
# chain: B1 chain with R24A, P44S
# B31: trypsin variant SEQ ID NO: 47 (protein)
# chain: B1 chain with R24I, P44S
# B32: trypsin variant SEQ ID NO: 48 (protein)
# chain: B1 chain with R24M, P44S
# B33: trypsin variant SEQ ID NO: 49 (protein)
# chain: B1 chain with R24T, P44S
# B34: trypsin variant SEQ ID NO: 50 (protein)
# chain: B1 chain with R24N, P44S
# B35: trypsin variant SEQ ID NO: 51 (protein)
# chain: B1 chain with R24K, P44S
Protein,Activity PPI cleavage (pre-pro-human insulin),Selectivity (pre-pro-human insulin) [%],Purity Insulin Glargine (pre-pro-insulin glargine) [area %],Yield (pre-pro-insulin glargine) [%],desArg (pre-pro-insulin glargine) [area %],desThr (pre-pro-insulin glargine) [area %]
B1,yes,>90,81.3,> 80,< 0.5,2.1
B2,yes,>90,85.3,> 90,< 0.5,2
B3,yes,>90,87.5,> 90,< 0.5,2.3
B4,yes,>90,85.2,> 90,< 0.5,3.6
B5,yes,>90,83,> 90,< 0.5,2.2
B6,yes,>90,82.4,> 80,< 0.5,2.1
B7,yes,>90,88.2,> 90,0.5,1.6
B8,yes,>80,85.1,> 90,0.5,1.6
B9,yes,>90,87.8,> 90,0.7,0.3
B10,yes,>90,90.1,> 90,0.9,0.5
B11,yes,>90,89.7,> 90,1.2,0.5
B12,yes,>90,83.8,> 80,0.6,0.3
B13,yes,>90,82.7,> 90,< 0.5,2.6
B14,yes,>90,89,> 90,< 0.5,1.2
B15,yes,>90,85.4,> 90,0.6,1.6
B16,yes,>90,85.4,> 90,1.1,0.2
B17,yes,>90,79.3,> 80,0.8,0.1
B18,yes,>90,83.8,> 80,0.6,0.3

Protein,Activity PPI cleavage (pre-pro-human insulin),Selectivity (pre-pro-human insulin) [%],Purity Insulin Glargine (pre-pro-insulin glargine) [area %],Yield (pre-pro-insulin glargine) [%],desArg (pre-pro-insulin glargine) [area %],desThr (pre-pro-insulin glargine) [area %]
B19,yes,>90,84.3,> 90,0.7,1.9
B20,yes,>90,88.1,> 90,0.5,1.2
B21,yes,>90,89.5,> 90,0.9,0.2
B22,yes,>90,86.8,> 90,1,0.3
B23,yes,>90,88.1,> 90,0.9,0.6
B24,yes,>90,84.1,> 90,< 0.5,2.2
B25,yes,>90,71.3,> 75,0.7,0.3
B26,yes,>90,85.2,> 90,0.8,0.3
B27,yes,>80,,,,
B28,yes,>80,,,,
B29,yes,>65,,,,
B30,yes,>70,,,,
B31,yes,>90,,,,
B32,yes,>80,,,,
B33,yes,>80,,,,
B34,yes,>65,,,,
B35,yes,>70,,,,
